According to the supplement of paper PMC9732359:
± gives the uncertainty stated by the source.

Assay: protein stability index of a GFP-peptide fusion (yeast GPS) (PSI 1-4); higher = more stable; sorted into four equal gates, so the index is relative within each strain
Outline: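 Each library plasmid carries Cherry plus GFP with a tiled 17-residue yeast protein peptide fused downstream, and the pooled library was carried in yeast. Mid-log cultures in leucine-free medium were sorted into four equal gates by GFP/Cherry ratio. Reads from Illumina sequencing of PCR-amplified plasmids from each gate were assigned to strains by barcodes. Per peptide, the protein stability index was computed as the summed products of gate read frequency and gate number.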

Row | Sequence | protein stability index (doa10∆) | protein stability index (pdr5∆) | protein stability index (san1∆) | protein stability index (ubr1∆)
1 | WKRQISYFLKLLGNCYS [SRB8] | 1.63 ± 0.038 | 1.82 ± 0.042 | 1.69 ± 0.071 | 1.37 ± 0.037
2 | SDSSSEDEVKVEGPKFT [YLR335W/NUP2] | 3.4 ± 0.12 | 3.47 ± 0.13 | 3.4 ± 0.06 | 3.44 ± 0.16
3 | GTAIGAIGAQSIGEPGT [RPO31] | 3.12 ± 0.11 | 3.13 ± 0.092 | 2.61 ± 0.14 | 3.15 ± 0.059
4 | IGGRRFSEGTSADREIQ [RPT4] | 2.51 ± 0.085 | 2.59 ± 0.088 | 1.98 ± 0.12 | 2.77 ± 0.19
5 | ELLDFLTSNLSNYSRTM [YJL039C/NUP192] | 2.35 ± 0.076 | 2.54 ± 0.079 | 2.82 ± 0.054 | 2.59 ± 0.085
6 | ETDDNIETVMTQEQFVK [SRB4] | – | 3.23 ± 0.17 | 2.6 ± 0.2 | –
7 | EMGKLRERDITSLFHKF [RRI2] | 1.8 ± 0.071 | 1.83 ± 0.071 | 1.79 ± 0.17 | 1.95 ± 0.058
8 | MINDENYIINDIKKNNK [SRB8] | 3.15 ± 0.078 | 2.97 ± 0.095 | 3.42 ± 0.12 | 3.21 ± 0.13
9 | GKVTDVRSTIKFQLKKV [RPL1A] | 3.77 ± 0.21 | – | 3.01 ± 0.25 | 3.46 ± 0.13
10 | NARIYNTEGSVVYEDSL [SNF2] | 3.1 ± 0.084 | 3.25 ± 0.085 | 2.92 ± 0.11 | 3.25 ± 0.13
11 | ENSTSNSKPEKSSDSND [YLR335W/NUP2] | 3.24 ± 0.14 | 3.32 ± 0.16 | 3.31 ± 0.071 | 3.4 ± 0.085
12 | TNRHTLALETVLIKMVK [SIR3] | 2.84 ± 0.11 | 2.86 ± 0.072 | 2.61 ± 0.069 | 2.88 ± 0.054
13 | KINPFGFEQVKIALGSP [RRI2] | 2.65 ± 0.08 | 2.91 ± 0.053 | 2.77 ± 0.068 | 2.78 ± 0.07
14 | EIINNKTSSQTSLSSKD [YMR153W/NUP53] | 2.33 ± 0.067 | 2.12 ± 0.073 | 2.34 ± 0.12 | 2.45 ± 0.045
15 | SIREQVHMYHKSLALLG [SNF5] | 1.81 ± 0.041 | 1.74 ± 0.041 | 2.37 ± 0.095 | 2.06 ± 0.045
16 | NKLGNKRLTEDERIEKE [CDC53] | 2.38 ± 0.15 | 3.13 ± 0.095 | 2.31 ± 0.059 | 2.42 ± 0.11
17 | AVSEKAGHQTSAESWGT [RPL4A] | 2.24 ± 0.086 | 2.03 ± 0.1 | 1.71 ± 0.11 | 1.86 ± 0.088
18 | SIKSKVVDHHVENELLQ [RRP42] | 3.38 ± 0.13 | 3.24 ± 0.2 | 2.82 ± 0.17 | –
19 | IGLVKCTQMTDEGLLNM [GRR1] | 3.01 ± 0.068 | 2.91 ± 0.066 | 2.81 ± 0.057 | 2.91 ± 0.043
20 | EVQRILIELLTQMDGFD [RPT3] | 1.36 ± 0.054 | 2.08 ± 0.081 | 1.41 ± 0.16 | 1.81 ± 0.069
21 | ALFQPPNFDWDLCSSVL [ROX3] | 3.08 ± 0.077 | 3.29 ± 0.098 | 2.95 ± 0.089 | 2.92 ± 0.09
22 | EPGHAADQEQAKLIRSA [RPO21] | 3.2 ± 0.2 | 3.24 ± 0.2 | 2.69 ± 0.19 | 3.12 ± 0.1
23 | NLEIPAYEFDGDKVIVG [RIP1] | 2.71 ± 0.07 | 2.61 ± 0.093 | 2.65 ± 0.064 | 2.72 ± 0.077
24 | SPELKADLRPLQIKSIR [RPS7B] | 2.42 ± 0.14 | 2.9 ± 0.13 | 2.67 ± 0.13 | 2.98 ± 0.091
25 | PLDSKDENFASVSPAGP [SNF2] | 3.05 ± 0.11 | 3.12 ± 0.092 | 3.15 ± 0.071 | 2.99 ± 0.06
26 | LVTKILPLKKNEIIGDR [YCG1] | 2.88 ± 0.22 | 2.9 ± 0.18 | 2.6 ± 0.24 | 2.83 ± 0.27
27 | SKPVLIVGQKNLNRAFN [DIS3] | 3.08 ± 0.11 | 2.8 ± 0.1 | 2.77 ± 0.055 | 2.8 ± 0.088

Row | Sequence | protein stability index (doa10∆) | protein stability index (pdr5∆) | protein stability index (san1∆) | protein stability index (ubr1∆)
28 | SSLMNGLGYVFEFQYLT [SRB5] | 2.25 ± 0.095 | 1.83 ± 0.085 | 1.64 ± 0.084 | 3.19 ± 0.073
29 | KIRPWRTFRLNECVCTP [RPO31] | 1.31 ± 0.065 | 1.99 ± 0.064 | 1.73 ± 0.18 | 1.24 ± 0.092
30 | SMFSGLDSTGFDSTAFN [MED2] | 3.05 ± 0.044 | 3.17 ± 0.042 | 3.19 ± 0.034 | 3.104 ± 0.03
31 | LDYQIGNSESKVEKGVN [LIN1] | 3.12 ± 0.12 | 3.4 ± 0.18 | 2.92 ± 0.15 | 3.38 ± 0.13
32 | KILVLTGAGVSTSLGIP [SIR2] | 2.35 ± 0.042 | 2.34 ± 0.057 | 2.76 ± 0.054 | 2.69 ± 0.051
33 | LYENIASSPIILEEGSS [RPN10] | 2.2 ± 0.04 | 2.37 ± 0.047 | 2.35 ± 0.06 | 2.35 ± 0.036
34 | AAAYSHELPRYGITHGL [RPL5] | 2.64 ± 0.081 | 2.93 ± 0.064 | 2.98 ± 0.052 | 2.96 ± 0.074
35 | MSESSDISAMQPVNPKP [SMX3] | 3.42 ± 0.15 | 3.51 ± 0.16 | 3.4 ± 0.12 | 3.17 ± 0.14
36 | LSRAEYDSDSDSSVEDS [LIN1] | 3.14 ± 0.17 | 2.96 ± 0.16 | 2.87 ± 0.085 | 3.16 ± 0.084
37 | IEEQGDALQDVEESSEK [DPB4] | 3.02 ± 0.12 | 3.46 ± 0.079 | 3.13 ± 0.059 | 3.41 ± 0.075
38 | EFVDDYTVNVVDVFAMP [RPN11] | 3.08 ± 0.19 | 3.01 ± 0.17 | 2.91 ± 0.12 | 3.13 ± 0.13
39 | ILDGQDVEENRSEFIES [YJR042W/NUP85] | 3.13 ± 0.09 | 3.2 ± 0.071 | 3.48 ± 0.072 | 3.27 ± 0.038
40 | KTQEYYTQYTNDYLEKH [CDC53] | 2.99 ± 0.062 | 2.42 ± 0.067 | 2.96 ± 0.049 | 3.22 ± 0.062
41 | LQAIDLLENPNCFFDVI [DIS3] | 2.48 ± 0.068 | 2.29 ± 0.066 | 3.06 ± 0.056 | 2.38 ± 0.056
42 | GINPNTFRIFHNHDTGC [YDL088C/ASM4] | 1.83 ± 0.073 | 1.85 ± 0.082 | 1.4 ± 0.15 | 1.44 ± 0.047
43 | SSSSDIIVPDLIELKSD [YML103C/NUP188] | 2.71 ± 0.085 | 3.15 ± 0.059 | 2.67 ± 0.13 | 2.7 ± 0.07
44 | ELVFSKGVYLILSEILC [YML103C/NUP188] | 1.93 ± 0.049 | 1.54 ± 0.048 | 1.71 ± 0.07 | 1.51 ± 0.026
45 | WNKRDFMAFINACAKYG [ISW2] | 1.21 ± 0.087 | 1.24 ± 0.092 | 1.34 ± 0.26 | 1.15 ± 0.063
46 | KAELPQWYTLQSQLNVT [MED8] | 2.77 ± 0.055 | 2.9 ± 0.047 | 2.8 ± 0.05 | 2.69 ± 0.056
47 | IIFQQLLFWTDPRNLVN [YCG1] | 2.04 ± 0.082 | 2.35 ± 0.067 | 3.1 ± 0.059 | 2.13 ± 0.11
48 | VVVAETSPEKKDGGDKP [YAR002W/NUP60] | 2.85 ± 0.19 | 3.23 ± 0.24 | 2.72 ± 0.13 | 3.44 ± 0.2
49 | LLTNFHGMDFTTDKLRS [RPS1A] | 2.52 ± 0.1 | 3.02 ± 0.084 | 2.84 ± 0.097 | 2.81 ± 0.077
50 | SLDLNNLELGGLNMDFL [PGD1] | 3.24 ± 0.098 | 3.19 ± 0.099 | 3.37 ± 0.082 | 2.74 ± 0.11
51 | MVDVEEKSQEVEYVDPT [RPN7] | 3.06 ± 0.22 | – | – | 3.38 ± 0.16
52 | IIDEIKCIPKKGTVFQF [POP4] | 1.6 ± 0.13 | 1.56 ± 0.074 | 1.86 ± 0.28 | 1.3 ± 0.048
53 | IGKDTFVTRKSRKRAKK [PRP8] | 3.01 ± 0.092 | 2.84 ± 0.096 | 2.87 ± 0.078 | 3.25 ± 0.049
